Molecular target: Isolated Mac-1 (αMβ2, CD11b/CD18) (UniProt P11215 17-1152; P05107 23-769)
Assay: ELISA

B1: Recombinant soluble mouse RAGE (receptor)
chain: GQNITARIGEPLVLSCKGAPKKPPQQLEWKLNTGRTEAWKVLSPQGGPWDSVARILPNGSLLLPATGIVDEGTFRCRATNRRGKEVKSNYRVRVYQIPGKPEIVDPASELTASVPNKVGTCVSEGSYPAGTLSWHLDGKLLIPDGKETLVKEETRRHPETGLFTLRSELTVIPTQGGTHPTFSCSFSLGLPRRRPLNTAPIQLRVREPGPPEGIQLLVEPEGGIVAPGGTVTLTCAISAQPPPQVHWIKDGAPLPLAPSPVLLLPEVGHEDEGTYSCVATHPSHGPQESPPVSIRVTETGDEGPAEGSVGESGLGTLA
IC50: ~175 nM

Reference: article PMC2194124 (The Journal of Experimental Medicine, 2003)
